From patent EP0910659B1, “ANTIBODIES AGAINST A COMPLEX OF CD4 AND A CHEMOKINE RECEPTOR DOMAIN, AND THEIR USE AGAINST HIV INFECTIONS” (United Biomedical, Inc., priority 1996, dated 1997)
Values belong to the substance of their own block, whether it stands above or below them.

Assays:
"M2-rsCD4" interaction = molecular target: T1, "M2-rsCD4" interaction (Homo sapiens, UniProt P01730); experiment: ELISA inhibition assay with CD4 peptides (M2); assay type: binding; details: M2 20 µg/mL, negative = enhancement; for % inhibition of "M2-rsCD4" interaction, Conc 3: peptide 16.7 µg/mL; for % inhibition of "M2-rsCD4" interaction, Conc 2: peptide 167 µg/mL; for % inhibition of "M2-rsCD4" interaction, Conc 1: peptide 1.67 mg/mL
T1 construct: purchased American Bio-Technologies, Inc. Cambridge, MA
Procedure: (§1) ELISA Inhibition Assays. […] The preincubated sample and peptide mixture was used directly in the standard rsCD4 ELISA procedure described herein above. Percent inhibition was calculated relative to the appropriate identically diluted monoclonal antibody which was preincubated in the absence of peptide. rsCD4-induced inhibition of antibody binding in the rsCD4 ELISA was similarly measured by preincubating diluted samples, at an endpoint rsCD4 binding dilution, with the competing rsCD4 at the indicated concentration.
(§2) The signal generated at endpoint concentration (e.g. 10 µg/mL for B4 and 20 µg/mL for M2) in an rsCD4 ELISA was employed as a positive control for the competitive peptide binding studies.
Table 6 depicts the per cent inhibition results obtained in the rsCD4 ELISA where designed CD4 peptides were serially diluted as in Table 5 and were individually incubated with 0.1 mL of M2 at 20 µg/mL prior to binding M2 to the solid phase-bound rsCD4.

"B4-rsCD4" interaction = molecular target: T2, "B4-rsCD4" interaction (Homo sapiens, UniProt P01730); experiment: ELISA inhibition assay with CD4 peptides (B4); assay type: binding; details: B4 10 µg/mL, negative = enhancement; for % inhibition of "B4-rsCD4" interaction, Conc 3: peptide 16.7 µg/mL; for % inhibition of "B4-rsCD4" interaction, Conc 2: peptide 167 µg/mL; for % inhibition of "B4-rsCD4" interaction, Conc 1: peptide 1.67 mg/mL
T2 construct: purchased American Bio-Technologies, Inc. Cambridge, MA
Procedure: as §1, §2
Table 5 depicts per cent inhibition results obtained in the rsCD4 ELISA where designed CD4 peptides were serially diluted and individually incubated with 0.1 mL of B4 at 10 µg/mL prior to the binding of B4 to the solid phase-bound rsCD4. Peptides were employed for competitive inhibition at concentrations of 1.67 mg/mL, 167 µg/mL and 16.7 µg/mL (conc 1, conc 2, and conc 3, respectively). […] Enhancement is expressed by negative values for inhibition.

[1] = molecular target: CD4 on the surface of CD4-expressing cells (host cell antigen complex comprising CD4) (human); experiment: HPB-ALL cells pre-incubated with PBS, then gp120-FITC 1:200
monoclonal antibody B4 [2] = experiment: competition rsCD4 ELISA, B4 10 µg/mL, peptide 16.7 µg/mL; negative value = enhancement
monoclonal antibody B4 [3] = experiment: competition rsCD4 ELISA, B4 10 µg/mL, peptide 1.67 mg/mL; negative value = enhancement
monoclonal antibody B4 [4] = experiment: competition rsCD4 ELISA, B4 10 µg/mL, peptide 167 µg/mL; negative value = enhancement
monoclonal antibody B4 [5] = experiment: competition rsCD4 ELISA, B4 10 µg/mL, peptide 16.7 µg/mL
monoclonal antibody B4 [6] = experiment: competition rsCD4 ELISA, B4 10 µg/mL, peptide 167 µg/mL
monoclonal antibody B4 [7] = experiment: competition rsCD4 ELISA, B4 10 µg/mL, peptide 1.67 mg/mL
[8] = molecular target: gp120 of HIV-1 primary isolate BR014 (clade B); experiment: cell-based or functional assay
[9] = molecular target: gp120 of HIV-1 primary isolate 23135 (clade B); experiment: cell-based or functional assay
[10] = molecular target: gp120 of HIV-1 primary field isolate DH-12 (clade B); experiment: cell-based or functional assay
monoclonal antibody B4 [11] = experiment: competition ELISA: soluble rsCD4 0.04 µg/mL preincubated with B4 2 µg/mL; solid-phase rsCD4
monoclonal antibody B4 [12] = experiment: soluble rsCD4 50 µg/mL preincubated with biotinylated B4 0.71 µg/mL, then HPB-ALL cells; no inhibition
monoclonal antibody B4 [13] = experiment: soluble rsCD4 0.5 µg/mL preincubated with biotinylated B4 0.71 µg/mL, then HPB-ALL cells; no inhibition
monoclonal antibody B4 [14] = experiment: competition ELISA: soluble rsCD4 5 µg/mL preincubated with B4 2 µg/mL; solid-phase rsCD4
monoclonal antibody B4 [15] = experiment: soluble rsCD4 0.005 µg/mL preincubated with biotinylated B4 0.71 µg/mL, then HPB-ALL cells; no inhibition
monoclonal antibody B4 [16] = experiment: soluble rsCD4 0.05 µg/mL preincubated with biotinylated B4 0.71 µg/mL, then HPB-ALL cells; no inhibition
monoclonal antibody B4 [17] = experiment: competition ELISA: soluble rsCD4 1.0 µg/mL preincubated with B4 2 µg/mL; solid-phase rsCD4
monoclonal antibody B4 [18] = experiment: ELISA inhibition: soluble rsCD4 preincubated with B4 2 µg/mL; wells coated with rsCD4
monoclonal antibody B4 [19] = experiment: competition ELISA: soluble rsCD4 0.2 µg/mL preincubated with B4 2 µg/mL; solid-phase rsCD4
monoclonal antibody B4 [20] = experiment: competition ELISA: soluble rsCD4 preincubated with B4 2 µg/mL; solid-phase rsCD4
monoclonal antibody B4 [21] = experiment: competition ELISA: soluble rsCD4 25 µg/mL preincubated with B4 2 µg/mL; solid-phase rsCD4
monoclonal antibody B4 [22] = experiment: soluble rsCD4 5 µg/mL preincubated with biotinylated B4 0.71 µg/mL, then HPB-ALL cells; no inhibition
monoclonal antibody B4 [23] = experiment: ELISA inhibition: soluble rsCD4 preincubated with B4 0.1 µg/mL; wells coated with rsCD4/CC-CKR5-D3 (p2047a)
monoclonal antibody B4 [24] = experiment: competition ELISA: soluble rsCD4 0.008 µg/mL preincubated with B4 2 µg/mL; solid-phase rsCD4

Substance: CD4 (1-20) [1816d]
% inhibition of "M2-rsCD4" interaction, Conc 3 ("M2-rsCD4" interaction): 17%
% inhibition of "M2-rsCD4" interaction, Conc 2 ("M2-rsCD4" interaction): 60%
% inhibition of "M2-rsCD4" interaction, Conc 1 ("M2-rsCD4" interaction): 74%
% inhibition of "B4-rsCD4" interaction, Conc 3 ("B4-rsCD4" interaction): 29%
% inhibition of "B4-rsCD4" interaction, Conc 2 ("B4-rsCD4" interaction): 53%
% inhibition of "B4-rsCD4" interaction, Conc 1 ("B4-rsCD4" interaction): 64%

Substance: HIV-1 gp120 (ligand)
% of cells stained by gp120-FITC [1]: > 90%

Substance: p1768a CD4(154-165) (peptide)
% inhibition of B4-rsCD4 interaction (monoclonal antibody B4 [5]): 6%
% inhibition of B4-rsCD4 interaction (monoclonal antibody B4 [6]): 37%
% inhibition of B4-rsCD4 interaction (monoclonal antibody B4 [7]): 82%

Substance: p1768b HBVTh-GG-CD4(154-165) (peptide)
% inhibition of B4-rsCD4 interaction (monoclonal antibody B4 [5]): 11%
% inhibition of B4-rsCD4 interaction (monoclonal antibody B4 [6]): 44%
% inhibition of B4-rsCD4 interaction (monoclonal antibody B4 [7]): 76%

Substance: p1813b HBVTh-GG-CD4(79-88) (peptide)
% inhibition of B4-rsCD4 interaction (monoclonal antibody B4 [5]): 32%
% inhibition of B4-rsCD4 interaction (monoclonal antibody B4 [6]): 69%
% inhibition of B4-rsCD4 interaction (monoclonal antibody B4 [7]): 93%

Substance: p1868a CD4(297-351), cyclic (peptide)
% inhibition of B4-rsCD4 interaction (monoclonal antibody B4 [5]): 19%
% inhibition of B4-rsCD4 interaction (monoclonal antibody B4 [6]): 30%
% inhibition of B4-rsCD4 interaction (monoclonal antibody B4 [7]): 38%

Substance: recombinant human monoclonal antibody IgG1 b12
50% Inhbt., HIV-1 primary isolate BR014, MT-2 Microplaque Neutralization Assay [8]: > 50 µg/mL
50% Inhbt., HIV-1 primary isolate 23135, MT-2 Microplaque Neutralization Assay [9]: 12.8 µg/mL
HIV-1 DH-12 (chimp PBL-grown), PBMC Infection Reduction Assay [10]: 1.38 logs killed

Second part, the substance after the results:

% inhibition of "M2-rsCD4" interaction, Conc 3 ("M2-rsCD4" interaction): -141%
% inhibition of "M2-rsCD4" interaction, Conc 2 ("M2-rsCD4" interaction): -251%
% inhibition of "M2-rsCD4" interaction, Conc 1 ("M2-rsCD4" interaction): -261%
% inhibition of "B4-rsCD4" interaction, Conc 3 ("B4-rsCD4" interaction): -108%
% inhibition of "B4-rsCD4" interaction, Conc 2 ("B4-rsCD4" interaction): -207%
% inhibition of "B4-rsCD4" interaction, Conc 1 ("B4-rsCD4" interaction): -215%
Substance: CD4 (36-47) [1624a]

% inhibition of "M2-rsCD4" interaction, Conc 3 ("M2-rsCD4" interaction): 19%
% inhibition of "M2-rsCD4" interaction, Conc 2 ("M2-rsCD4" interaction): 36%
% inhibition of "M2-rsCD4" interaction, Conc 1 ("M2-rsCD4" interaction): 86%
% inhibition of "B4-rsCD4" interaction, Conc 3 ("B4-rsCD4" interaction): 6%
% inhibition of "B4-rsCD4" interaction, Conc 2 ("B4-rsCD4" interaction): 37%
% inhibition of "B4-rsCD4" interaction, Conc 1 ("B4-rsCD4" interaction): 82%
Substance: CD4 (154-165) [1768a]

% inhibition of "M2-rsCD4" interaction, Conc 3 ("M2-rsCD4" interaction): 17%
% inhibition of "M2-rsCD4" interaction, Conc 2 ("M2-rsCD4" interaction): 43%
% inhibition of "M2-rsCD4" interaction, Conc 1 ("M2-rsCD4" interaction): 56%
% inhibition of "B4-rsCD4" interaction, Conc 3 ("B4-rsCD4" interaction): 19%
% inhibition of "B4-rsCD4" interaction, Conc 2 ("B4-rsCD4" interaction): 30%
% inhibition of "B4-rsCD4" interaction, Conc 1 ("B4-rsCD4" interaction): 38%
Substance: CD4 (297-351*) [1868a]

% inhibition of B4-rsCD4 interaction (monoclonal antibody B4 [2]): -108%
% inhibition of B4-rsCD4 interaction (monoclonal antibody B4 [3]): -215%
% inhibition of B4-rsCD4 interaction (monoclonal antibody B4 [4]): -207%
Substance: p1624a (C)CD4(36-47)(C), cyclic (peptide)

% inhibition of B4-rsCD4 interaction (monoclonal antibody B4 [5]): 29%
% inhibition of B4-rsCD4 interaction (monoclonal antibody B4 [6]): 53%
% inhibition of B4-rsCD4 interaction (monoclonal antibody B4 [7]): 64%
Substance: p1816d CD4(1-20) (peptide)

% Inhibition (monoclonal antibody B4 [11]): 6.1%
A492 nm (monoclonal antibody B4 [11]): 0.637 A492
% Positive cells (biotinylated B4 staining of HPB-ALL) (monoclonal antibody B4 [12]): > 95%
staining (biotinylated B4 on HPB-ALL) (monoclonal antibody B4 [12]): 3 +
% Positive cells (biotinylated B4 staining of HPB-ALL) (monoclonal antibody B4 [13]): > 95%
staining (biotinylated B4 on HPB-ALL) (monoclonal antibody B4 [13]): 3 +
% Inhibition (monoclonal antibody B4 [14]): 91%
A492 nm (monoclonal antibody B4 [14]): 0.061 A492
% Positive cells (biotinylated B4 staining of HPB-ALL) (monoclonal antibody B4 [15]): > 95%
staining (biotinylated B4 on HPB-ALL) (monoclonal antibody B4 [15]): 3 +
% Positive cells (biotinylated B4 staining of HPB-ALL) (monoclonal antibody B4 [16]): > 95%
staining (biotinylated B4 on HPB-ALL) (monoclonal antibody B4 [16]): 3 +
% Inhibition (monoclonal antibody B4 [17]): 49.9%
A492 nm (monoclonal antibody B4 [17]): 0.34 A492
IC50 (monoclonal antibody B4 [18]): 0.72 µg/mL
% Inhibition (monoclonal antibody B4 [19]): 6.7%
A492 nm (monoclonal antibody B4 [19]): 0.633 A492
IC50 (monoclonal antibody B4 [20]): 1 µg/mL
% Inhibition (monoclonal antibody B4 [21]): 91.9%
A492 nm (monoclonal antibody B4 [21]): 0.055 A492
% Positive cells (biotinylated B4 staining of HPB-ALL) (monoclonal antibody B4 [22]): > 95%
staining (biotinylated B4 on HPB-ALL) (monoclonal antibody B4 [22]): 3 +
IC50 (monoclonal antibody B4 [23]): 0.047 µg/mL
% Inhibition (monoclonal antibody B4 [24]): -4.7%
A492 nm (monoclonal antibody B4 [24]): 0.711 A492
Substance: recombinant soluble CD4 (rsCD4) (receptor)
